Molecular target: His-tagged wildtype EGFR kinase domain (human, UniProt P00533 696-1022, limits assumed)
Test: cell-based or functional assay

SYLNGVMPPTQSFAPDPKYVSSKAL [25-mer peptide corresponding to residues 340-364 in Mig-6]
inhibition of activated EGFR kinase (IC50): ~100 µM

— patent publication US20100120678A1 (University of California, published 2010)
